Molecular target: recombinant human ACE2 receptor (SinoBiological) (human) (UniProt Q9BYF1)
UniProt Q9BYF1, sequence (Q9BYF1 18-740 limits assumed): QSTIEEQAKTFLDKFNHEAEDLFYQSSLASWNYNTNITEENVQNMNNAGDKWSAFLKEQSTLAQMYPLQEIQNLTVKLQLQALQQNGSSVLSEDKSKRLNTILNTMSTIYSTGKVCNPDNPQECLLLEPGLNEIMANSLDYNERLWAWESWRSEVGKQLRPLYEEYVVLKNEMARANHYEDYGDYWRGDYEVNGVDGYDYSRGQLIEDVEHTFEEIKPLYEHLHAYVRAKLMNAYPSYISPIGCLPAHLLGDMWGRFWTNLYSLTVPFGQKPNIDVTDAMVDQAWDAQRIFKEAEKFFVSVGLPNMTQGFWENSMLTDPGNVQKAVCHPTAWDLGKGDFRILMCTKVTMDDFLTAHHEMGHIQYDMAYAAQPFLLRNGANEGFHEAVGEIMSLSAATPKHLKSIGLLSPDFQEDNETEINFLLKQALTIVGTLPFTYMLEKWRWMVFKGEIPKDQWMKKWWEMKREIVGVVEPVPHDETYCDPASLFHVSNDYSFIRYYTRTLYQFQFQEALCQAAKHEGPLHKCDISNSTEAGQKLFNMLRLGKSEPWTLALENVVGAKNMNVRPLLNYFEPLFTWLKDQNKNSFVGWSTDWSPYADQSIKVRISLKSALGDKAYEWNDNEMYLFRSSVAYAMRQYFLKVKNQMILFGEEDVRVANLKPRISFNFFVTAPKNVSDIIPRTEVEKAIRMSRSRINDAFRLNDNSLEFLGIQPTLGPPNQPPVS

| Substance | fold higher binding activity than the reference Wuhan RBD-C-tag [fold] |
| --- | --- |
| RBD-omicron B.1.1.529 (RBD-C-tag) (other; other documents disagree on this pair) | 4 |
| RBD-omicron BA.5 (RBD-C-tag) (other; other documents disagree on this pair) | 8 |

— patent US20250042949A1
